Results reported in the supplement of paper PMC5998384.

How the values were obtained:
HeLa Kyoto [1] = assay: melting temperature (median over replicates), in situ; higher = more thermally stable
HeLa Kyoto [2] = assay: solubility change mitosis vs G1/S (difference of NP-40 vs SDS log2 ratios) (log2 ratio difference); higher = more soluble in mitosis
HeLa Kyoto [3] = assay: solubility in G1/S (NP-40 vs SDS abundance) (log2 ratio); higher = more soluble; details: cell cycle stage: G1/S
HeLa Kyoto [4] = assay: thermal stability score vs G1/S (z-score of summed log2 fold changes over temperatures); higher = more thermally stable than in G1/S
[5] = cell cycle stage: early G1 (4.5 h after nocodazole release)
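For melting temperature (median over replicates), in situ in this document: HeLa Kyoto cells synchronized by double thymidine or nocodazole block, proteins quantified by TMT10plex mass spectrometry, three independent biological replicates.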
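For solubility change mitosis vs G1/S (difference of NP-40 vs SDS log2 ratios) in this document: synchronized HeLa Kyoto cells (double thymidine block for G1/S, nocodazole release for mitosis), protein amounts in NP-40 versus SDS lysates quantified by mass spectrometry, three biological replicates.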
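For solubility in G1/S (NP-40 vs SDS abundance) in this document: HeLa Kyoto cells arrested at G1/S by double thymidine block, proteins quantified by TMT10plex mass spectrometry in mild NP-40 versus SDS extracts, three biological replicates.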
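For thermal stability score vs G1/S (z-score of summed log2 fold changes over temperatures) in this document: synchronized HeLa Kyoto cells, proteins quantified by TMT10plex mass spectrometry, three biological replicates, mitosis taken 0.5 h after nocodazole release, G1/S directly after double thymidine block.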

Chain of LARS (chain, as listed by the source): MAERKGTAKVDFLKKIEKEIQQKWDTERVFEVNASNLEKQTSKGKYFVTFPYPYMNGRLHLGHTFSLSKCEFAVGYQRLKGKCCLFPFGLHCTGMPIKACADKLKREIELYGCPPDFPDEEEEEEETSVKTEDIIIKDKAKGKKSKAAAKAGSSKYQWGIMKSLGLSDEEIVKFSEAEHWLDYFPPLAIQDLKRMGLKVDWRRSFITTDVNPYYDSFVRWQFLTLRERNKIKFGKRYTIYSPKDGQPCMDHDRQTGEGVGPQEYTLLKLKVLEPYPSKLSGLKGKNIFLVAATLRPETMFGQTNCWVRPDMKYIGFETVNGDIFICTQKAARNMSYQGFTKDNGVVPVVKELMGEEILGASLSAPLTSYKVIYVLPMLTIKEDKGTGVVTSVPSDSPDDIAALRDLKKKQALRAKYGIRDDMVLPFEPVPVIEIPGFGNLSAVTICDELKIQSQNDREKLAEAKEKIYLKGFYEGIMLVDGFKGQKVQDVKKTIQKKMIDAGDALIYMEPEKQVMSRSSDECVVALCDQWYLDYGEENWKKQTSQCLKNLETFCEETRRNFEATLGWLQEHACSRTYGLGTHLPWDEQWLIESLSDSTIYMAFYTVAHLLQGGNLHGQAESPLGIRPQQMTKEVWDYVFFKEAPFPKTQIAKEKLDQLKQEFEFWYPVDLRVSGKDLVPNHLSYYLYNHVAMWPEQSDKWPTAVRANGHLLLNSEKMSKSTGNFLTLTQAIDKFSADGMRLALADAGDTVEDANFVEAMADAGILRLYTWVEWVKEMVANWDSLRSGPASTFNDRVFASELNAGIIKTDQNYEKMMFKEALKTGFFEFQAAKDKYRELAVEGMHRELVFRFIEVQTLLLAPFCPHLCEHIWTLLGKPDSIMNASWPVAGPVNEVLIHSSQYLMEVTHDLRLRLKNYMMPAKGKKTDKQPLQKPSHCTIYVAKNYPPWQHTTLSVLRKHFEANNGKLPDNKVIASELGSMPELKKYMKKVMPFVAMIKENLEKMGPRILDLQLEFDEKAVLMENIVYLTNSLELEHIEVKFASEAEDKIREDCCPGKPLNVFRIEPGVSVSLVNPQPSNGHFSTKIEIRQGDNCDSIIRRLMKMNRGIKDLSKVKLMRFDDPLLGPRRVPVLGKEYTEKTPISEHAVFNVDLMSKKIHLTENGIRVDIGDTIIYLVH
Chain of IRF2BP2 (chain, as listed by the source): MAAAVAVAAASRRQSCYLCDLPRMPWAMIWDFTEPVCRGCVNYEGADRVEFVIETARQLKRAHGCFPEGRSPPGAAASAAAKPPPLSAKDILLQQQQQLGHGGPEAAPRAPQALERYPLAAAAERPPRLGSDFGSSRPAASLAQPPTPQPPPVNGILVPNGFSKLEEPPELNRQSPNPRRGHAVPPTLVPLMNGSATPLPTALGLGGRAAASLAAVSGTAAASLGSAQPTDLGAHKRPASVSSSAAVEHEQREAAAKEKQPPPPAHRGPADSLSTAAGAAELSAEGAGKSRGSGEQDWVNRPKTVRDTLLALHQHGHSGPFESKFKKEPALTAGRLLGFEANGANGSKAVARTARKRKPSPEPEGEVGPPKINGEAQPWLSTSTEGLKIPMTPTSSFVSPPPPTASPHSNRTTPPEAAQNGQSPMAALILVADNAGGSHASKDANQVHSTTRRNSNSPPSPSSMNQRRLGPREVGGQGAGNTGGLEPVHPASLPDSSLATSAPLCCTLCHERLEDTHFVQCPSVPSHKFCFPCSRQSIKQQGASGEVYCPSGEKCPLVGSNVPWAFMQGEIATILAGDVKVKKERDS
Chain of LSM3 (chain, as listed by the source): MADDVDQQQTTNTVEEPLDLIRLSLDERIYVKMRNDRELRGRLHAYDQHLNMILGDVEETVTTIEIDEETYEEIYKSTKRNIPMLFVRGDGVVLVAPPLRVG
Chain of HDGF (chain, as listed by the source): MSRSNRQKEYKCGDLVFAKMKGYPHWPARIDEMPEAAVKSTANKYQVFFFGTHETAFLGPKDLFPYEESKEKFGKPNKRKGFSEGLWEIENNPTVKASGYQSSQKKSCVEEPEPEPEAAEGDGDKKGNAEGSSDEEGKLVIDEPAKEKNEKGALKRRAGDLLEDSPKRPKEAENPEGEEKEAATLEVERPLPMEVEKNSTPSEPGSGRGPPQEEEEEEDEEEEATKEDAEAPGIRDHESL

GCHFR
melting temperature (HeLa Kyoto [1]; cell cycle stage: G1/S): 55 °C
melting temperature (HeLa Kyoto [1]; cell cycle stage: mitosis): 59.7 °C
solubility change mitosis (log2) (HeLa Kyoto [2]): 0.498
solubility in G1/S (log2) (HeLa Kyoto [3]): 0.27
thermal stability score (HeLa Kyoto [4]; [5]): -1.12
thermal stability score (HeLa Kyoto [4]; cell cycle stage: mitosis): -0.945

GOLGA4
melting temperature (HeLa Kyoto [1]; cell cycle stage: G1/S): 48.5 °C
melting temperature (HeLa Kyoto [1]; cell cycle stage: mitosis): 49.2 °C
solubility change mitosis (log2) (HeLa Kyoto [2]): -0.133
solubility in G1/S (log2) (HeLa Kyoto [3]): 0.348
thermal stability score (HeLa Kyoto [4]; [5]): 0.946
thermal stability score (HeLa Kyoto [4]; cell cycle stage: mitosis): 2.53

HDGF
melting temperature (HeLa Kyoto [1]; cell cycle stage: G1/S): 53.5 °C
melting temperature (HeLa Kyoto [1]; cell cycle stage: mitosis): 53.2 °C
solubility change mitosis (log2) (HeLa Kyoto [2]): 0.219
solubility in G1/S (log2) (HeLa Kyoto [3]): 0.426
thermal stability score (HeLa Kyoto [4]; [5]): -2.27
thermal stability score (HeLa Kyoto [4]; cell cycle stage: mitosis): -3.47

HERC2
melting temperature (HeLa Kyoto [1]; cell cycle stage: G1/S): 51.3 °C
melting temperature (HeLa Kyoto [1]; cell cycle stage: mitosis): 50 °C
solubility change mitosis (log2) (HeLa Kyoto [2]): 0.00915
solubility in G1/S (log2) (HeLa Kyoto [3]): -0.443
thermal stability score (HeLa Kyoto [4]; [5]): 0.138
thermal stability score (HeLa Kyoto [4]; cell cycle stage: mitosis): 0.405

ILF2
melting temperature (HeLa Kyoto [1]; cell cycle stage: G1/S): 54.6 °C
melting temperature (HeLa Kyoto [1]; cell cycle stage: mitosis): 53.3 °C
solubility change mitosis (log2) (HeLa Kyoto [2]): 0.0511
solubility in G1/S (log2) (HeLa Kyoto [3]): -0.141
thermal stability score (HeLa Kyoto [4]; [5]): -1.61
thermal stability score (HeLa Kyoto [4]; cell cycle stage: mitosis): -1.98

IQGAP3
melting temperature (HeLa Kyoto [1]; cell cycle stage: G1/S): 47.8 °C
melting temperature (HeLa Kyoto [1]; cell cycle stage: mitosis): 48.1 °C
solubility change mitosis (log2) (HeLa Kyoto [2]): 0.191
solubility in G1/S (log2) (HeLa Kyoto [3]): -0.395
thermal stability score (HeLa Kyoto [4]; [5]): 0.51
thermal stability score (HeLa Kyoto [4]; cell cycle stage: mitosis): 1.12

IRF2BP2
melting temperature (HeLa Kyoto [1]; cell cycle stage: G1/S): 53 °C
melting temperature (HeLa Kyoto [1]; cell cycle stage: mitosis): 52.6 °C
solubility change mitosis (log2) (HeLa Kyoto [2]): -0.0308
solubility in G1/S (log2) (HeLa Kyoto [3]): 0.391
thermal stability score (HeLa Kyoto [4]; [5]): -0.348
thermal stability score (HeLa Kyoto [4]; cell cycle stage: mitosis): -1.16

ITSN1
melting temperature (HeLa Kyoto [1]; cell cycle stage: G1/S): 49.5 °C
melting temperature (HeLa Kyoto [1]; cell cycle stage: mitosis): 50.2 °C
solubility change mitosis (log2) (HeLa Kyoto [2]): -0.0764
solubility in G1/S (log2) (HeLa Kyoto [3]): 0.0319
thermal stability score (HeLa Kyoto [4]; [5]): -0.00548
thermal stability score (HeLa Kyoto [4]; cell cycle stage: mitosis): 0.39

JMJD1C
melting temperature (HeLa Kyoto [1]; cell cycle stage: G1/S): 50.2 °C
melting temperature (HeLa Kyoto [1]; cell cycle stage: mitosis): 50.7 °C
solubility change mitosis (log2) (HeLa Kyoto [2]): -0.0573
solubility in G1/S (log2) (HeLa Kyoto [3]): -0.105
thermal stability score (HeLa Kyoto [4]; [5]): 0.98
thermal stability score (HeLa Kyoto [4]; cell cycle stage: mitosis): 0.156

KIF13A
melting temperature (HeLa Kyoto [1]; cell cycle stage: G1/S): 51.9 °C
melting temperature (HeLa Kyoto [1]; cell cycle stage: mitosis): 51.4 °C
solubility change mitosis (log2) (HeLa Kyoto [2]): -0.102
solubility in G1/S (log2) (HeLa Kyoto [3]): -0.0515
thermal stability score (HeLa Kyoto [4]; [5]): -0.212
thermal stability score (HeLa Kyoto [4]; cell cycle stage: mitosis): -0.151

KIF14
melting temperature (HeLa Kyoto [1]; cell cycle stage: G1/S): 49.1 °C
melting temperature (HeLa Kyoto [1]; cell cycle stage: mitosis): 45.5 °C
solubility change mitosis (log2) (HeLa Kyoto [2]): -0.0203
solubility in G1/S (log2) (HeLa Kyoto [3]): -0.297
thermal stability score (HeLa Kyoto [4]; [5]): -0.945
thermal stability score (HeLa Kyoto [4]; cell cycle stage: mitosis): -2.77

LACTB2
melting temperature (HeLa Kyoto [1]; cell cycle stage: G1/S): 57.7 °C
melting temperature (HeLa Kyoto [1]; cell cycle stage: mitosis): 56.1 °C
solubility change mitosis (log2) (HeLa Kyoto [2]): -0.0335
solubility in G1/S (log2) (HeLa Kyoto [3]): 0.418
thermal stability score (HeLa Kyoto [4]; [5]): -2.61
thermal stability score (HeLa Kyoto [4]; cell cycle stage: mitosis): -0.348

LAMA5
melting temperature (HeLa Kyoto [1]; cell cycle stage: G1/S): 53.3 °C
melting temperature (HeLa Kyoto [1]; cell cycle stage: mitosis): 54.1 °C
solubility change mitosis (log2) (HeLa Kyoto [2]): 0.0689
solubility in G1/S (log2) (HeLa Kyoto [3]): -0.331
thermal stability score (HeLa Kyoto [4]; [5]): 1.64
thermal stability score (HeLa Kyoto [4]; cell cycle stage: mitosis): 3.23

LARS
melting temperature (HeLa Kyoto [1]; cell cycle stage: G1/S): 49 °C
melting temperature (HeLa Kyoto [1]; cell cycle stage: mitosis): 49.1 °C
solubility change mitosis (log2) (HeLa Kyoto [2]): -0.14
solubility in G1/S (log2) (HeLa Kyoto [3]): -0.189
thermal stability score (HeLa Kyoto [4]; [5]): -0.182
thermal stability score (HeLa Kyoto [4]; cell cycle stage: mitosis): 2.83

LRBA
melting temperature (HeLa Kyoto [1]; cell cycle stage: G1/S): 51.2 °C
melting temperature (HeLa Kyoto [1]; cell cycle stage: mitosis): 51.2 °C
solubility change mitosis (log2) (HeLa Kyoto [2]): -0.148
solubility in G1/S (log2) (HeLa Kyoto [3]): -0.115
thermal stability score (HeLa Kyoto [4]; [5]): -0.555
thermal stability score (HeLa Kyoto [4]; cell cycle stage: mitosis): -0.768

LSM3
melting temperature (HeLa Kyoto [1]; cell cycle stage: G1/S): 55.4 °C
melting temperature (HeLa Kyoto [1]; cell cycle stage: mitosis): 53.4 °C
solubility change mitosis (log2) (HeLa Kyoto [2]): 0.115
solubility in G1/S (log2) (HeLa Kyoto [3]): 0.0123
thermal stability score (HeLa Kyoto [4]; [5]): -1.12
thermal stability score (HeLa Kyoto [4]; cell cycle stage: mitosis): -1.32

LSM14A
melting temperature (HeLa Kyoto [1]; cell cycle stage: G1/S): 51.8 °C
melting temperature (HeLa Kyoto [1]; cell cycle stage: mitosis): 51.6 °C
solubility change mitosis (log2) (HeLa Kyoto [2]): -0.186
solubility in G1/S (log2) (HeLa Kyoto [3]): 0.131
thermal stability score (HeLa Kyoto [4]; [5]): -0.955
thermal stability score (HeLa Kyoto [4]; cell cycle stage: mitosis): -1.78

MAAAAAEQQQFYLLLGNLLSPDNVVRKQAEETYENIPGQSKITFLLQAIRNTTAAEEARQMAAVLLRRLLSSAFDEVYPALPSDVQTAIKSELLMIIQMETQSSMRKKVCDIAAELARNLIDEDGNNQWPEGLKFLFDSVSSQNVGLREAALHIFWNFPGIFGNQQQHYLDVIKRMLVQCMQDQEHPSIRTLSARATAAFILANEHNVALFKHFADLLPGFLQAVNDSCYQNDDSVLKSLVEIADTVPKYLRPHLEATLQLSLKLCGDTSLNNMQRQLALEVIVTLSETAAAMLRKHTNIVAQTIPQMLAMMVDLEEDEDWANADELEDDDFDSNAVAGESALDRMACGLGGKLVLPMIKEHIMQMLQNPDWKYRHAGLMALSAIGEGCHQQMEGILNEIVNFVLLFLQDPHPRVRYAACNAVGQMATDFAPGFQKKFHEKVIAALLQTMEDQGNQRVQAHAAAALINFTEDCPKSLLIPYLDNLVKHLHSIMVLKLQELIQKGTKLVLEQVVTSIASVADTAEEKFVPYYDLFMPSLKHIVENAVQKELRLLRGKTIECISLIGLAVGKEKFMQDASDVMQLLLKTQTDFNDMEDDDPQISYMISAWARMCKILGKEFQQYLPVVMGPLMKTASIKPEVALLDTQDMENMSDDDGWEFVNLGDQQSFGIKTAGLEEKSTACQMLVCYAKELKEGFVEYTEQVVKLMVPLLKFYFHDGVRVAAAESMPLLLECARVRGPEYLTQMWHFMCDALIKAIGTEPDSDVLSEIMHSFAKCIEVMGDGCLNNEHFEELGGILKAKLEEHFKNQELRQVKRQDEDYDEQVEESLQDEDDNDVYILTKVSDILHSIFSSYKEKVLPWFEQLLPLIVNLICPHRPWPDRQWGLCIFDDVIEHCSPASFKYAEYFLRPMLQYVCDNSPEVRQAAAYGLGVMAQYGGDNYRPFCTEALPLLVRVIQSADSKTKENVNATENCISAVGKIMKFKPDCVNVEEVLPHWLSWLPLHEDKEEAVQTFNYLCDLIESNHPIVLGPNNTNLPKIFSIIAEGEMHEAIKHEDPCAKRLANVVRQVQTSGGLWTECIAQLSPEQQAAIQELLNSA [IPO5]
melting temperature (HeLa Kyoto [1]; cell cycle stage: G1/S): 54 °C
melting temperature (HeLa Kyoto [1]; cell cycle stage: mitosis): 53.5 °C
solubility change mitosis (log2) (HeLa Kyoto [2]): -0.0935
solubility in G1/S (log2) (HeLa Kyoto [3]): 0.177
thermal stability score (HeLa Kyoto [4]; [5]): 1.46
thermal stability score (HeLa Kyoto [4]; cell cycle stage: mitosis): 1.41

MAAAAASLRGVVLGPRGAGLPGARARGLLCSARPGQLPLRTPQAVALSSKSGLSRGRKVMLSALGMLAAGGAGLAMALHSAVSASDLELHPPSYPWSHRGLLSSLDHTSIRRGFQVYKQVCASCHSMDFVAYRHLVGVCYTEDEAKELAAEVEVQDGPNEDGEMFMRPGKLFDYFPKPYPNSEAARAANNGALPPDLSYIVRARHGGEDYVFSLLTGYCEPPTGVSLREGLYFNPYFPGQAIAMAPPIYTDVLEFDDGTPATMSQIAKDVCTFLRWASEPEHDHRKRMGLKMLMMMALLVPLVYTIKRHKWSVLKSRKLAYRPPK [CYC1]
melting temperature (HeLa Kyoto [1]; cell cycle stage: G1/S): 54.5 °C
melting temperature (HeLa Kyoto [1]; cell cycle stage: mitosis): 53.5 °C
solubility change mitosis (log2) (HeLa Kyoto [2]): -0.106
solubility in G1/S (log2) (HeLa Kyoto [3]): 0.869
thermal stability score (HeLa Kyoto [4]; [5]): -5.79
thermal stability score (HeLa Kyoto [4]; cell cycle stage: mitosis): -6.58
